Measured values: publication PMC12075686, “Structural basis of phosphorylation-independent nuclear import of CIRBP by TNPO3” (Nature Communications, 2025)
Values joined by “and” are separate entries in the source; they are usually repeats but may differ in a detail not shown here. Equal values may be shown once. Non-standard residues stand in square brackets, D forms with d. No end group written: not given here. pS = N[C@@H](COP(=O)(O)O)C(=O)O

Assays:
[1] = biological target: T1, Transportin 3 (TNPO3) C511A mutant (human, UniProt Q9Y5L0 1-923, C511A); assay: ITC
T1 sequence: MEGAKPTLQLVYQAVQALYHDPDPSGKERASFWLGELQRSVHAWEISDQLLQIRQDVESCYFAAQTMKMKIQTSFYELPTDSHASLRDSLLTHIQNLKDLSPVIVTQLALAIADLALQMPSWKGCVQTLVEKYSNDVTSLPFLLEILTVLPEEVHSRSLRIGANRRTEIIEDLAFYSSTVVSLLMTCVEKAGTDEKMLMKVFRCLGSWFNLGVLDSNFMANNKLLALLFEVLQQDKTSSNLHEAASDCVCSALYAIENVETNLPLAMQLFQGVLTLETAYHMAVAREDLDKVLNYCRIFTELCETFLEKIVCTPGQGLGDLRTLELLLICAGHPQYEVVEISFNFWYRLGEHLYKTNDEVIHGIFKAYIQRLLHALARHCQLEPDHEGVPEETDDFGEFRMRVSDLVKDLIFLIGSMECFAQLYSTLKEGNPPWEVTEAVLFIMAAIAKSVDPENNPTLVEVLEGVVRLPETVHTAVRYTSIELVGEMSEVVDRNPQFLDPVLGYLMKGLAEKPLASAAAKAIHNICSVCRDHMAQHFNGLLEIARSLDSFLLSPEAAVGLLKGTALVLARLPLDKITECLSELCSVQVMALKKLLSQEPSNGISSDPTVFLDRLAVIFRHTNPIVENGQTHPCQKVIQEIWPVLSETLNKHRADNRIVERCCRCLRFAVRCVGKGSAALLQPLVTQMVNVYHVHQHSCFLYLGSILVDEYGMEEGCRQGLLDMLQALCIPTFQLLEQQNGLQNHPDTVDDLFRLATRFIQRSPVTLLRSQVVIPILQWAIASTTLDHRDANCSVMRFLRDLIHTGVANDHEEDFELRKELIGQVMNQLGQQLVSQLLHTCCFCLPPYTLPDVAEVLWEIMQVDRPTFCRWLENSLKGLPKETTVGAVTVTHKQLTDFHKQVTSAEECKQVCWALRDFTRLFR

[2] = biological target: T1, Transportin 3 (TNPO3) C511A mutant; assay: ITC; remark: listed apart in the source
[3] = biological target: T1, Transportin 3 (TNPO3) C511A mutant; assay: ITC; rep2
[4] = biological target: T2, Transportin 3 (TNPO3), full-length wild type (human, UniProt Q9Y5L0 1-923); assay: NMR titration; 1H NMR spectra of 50 µM peptide free and with a stoichiometric amount (50 µM) of TNPO3 WT; line broadening of peptide signals; conditions: both partners purified
T2 construct: Transportin 3 (TNPO3), human, full-length wild type; For the NMR experiments made 15N-labelled with 13C-methyl labelling of isoleucine and methionine side chains ([IM-methyl 13C]); Vector pETM11-His6-protein A with a TEV site downstream of the protein A tag; also called TNPO3 WT; TNPO3 FL WT; source: E. coli BL21-(DE3) Star, purified (Ni-NTA, TEV cleavage, second Ni-NTA, SEC Superdex 200); not …
T2 sequence (looked up): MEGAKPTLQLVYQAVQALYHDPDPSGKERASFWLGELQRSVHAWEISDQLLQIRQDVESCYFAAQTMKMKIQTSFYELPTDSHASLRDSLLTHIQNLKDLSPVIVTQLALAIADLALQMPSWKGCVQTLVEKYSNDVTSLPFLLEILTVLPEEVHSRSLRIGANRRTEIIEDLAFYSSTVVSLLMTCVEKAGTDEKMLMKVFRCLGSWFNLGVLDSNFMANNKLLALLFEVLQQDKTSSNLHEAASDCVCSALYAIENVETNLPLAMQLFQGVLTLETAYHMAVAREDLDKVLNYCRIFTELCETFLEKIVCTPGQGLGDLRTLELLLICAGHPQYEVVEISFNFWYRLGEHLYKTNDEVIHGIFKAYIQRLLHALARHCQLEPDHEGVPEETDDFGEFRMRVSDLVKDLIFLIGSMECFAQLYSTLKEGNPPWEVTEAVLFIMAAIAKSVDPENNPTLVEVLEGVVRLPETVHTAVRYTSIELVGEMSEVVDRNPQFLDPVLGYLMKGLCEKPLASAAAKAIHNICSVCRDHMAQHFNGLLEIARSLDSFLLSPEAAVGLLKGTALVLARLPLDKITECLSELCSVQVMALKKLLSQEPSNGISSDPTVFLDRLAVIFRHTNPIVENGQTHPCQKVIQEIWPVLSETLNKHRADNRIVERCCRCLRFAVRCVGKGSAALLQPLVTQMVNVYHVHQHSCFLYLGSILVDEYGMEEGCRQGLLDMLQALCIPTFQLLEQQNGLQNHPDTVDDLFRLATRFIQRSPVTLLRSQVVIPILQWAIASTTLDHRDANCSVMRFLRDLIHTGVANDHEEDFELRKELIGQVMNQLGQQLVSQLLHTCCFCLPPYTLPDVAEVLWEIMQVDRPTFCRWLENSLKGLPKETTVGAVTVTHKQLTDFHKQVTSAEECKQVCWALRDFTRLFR

[5] = biological target: Transportin 3 (TNPO3) C511A mutant (human) (UniProt Q9Y5L0); assay: ITC; 100 µM ligand in the syringe injected (28 x 10 µL) into 10 µM TNPO3 (WT or C511A) in the cell; 25 °C; 50 mM Tris-HCl pH 7.5, 150 mM NaCl, 2 mM TCEP, 0.04% NaN3
[6] = biological target: T3, Transportin 3 (TNPO3), full-length wild type (human, UniProt Q9Y5L0 1-923); assay: ITC; phosphorylated
T3 chain: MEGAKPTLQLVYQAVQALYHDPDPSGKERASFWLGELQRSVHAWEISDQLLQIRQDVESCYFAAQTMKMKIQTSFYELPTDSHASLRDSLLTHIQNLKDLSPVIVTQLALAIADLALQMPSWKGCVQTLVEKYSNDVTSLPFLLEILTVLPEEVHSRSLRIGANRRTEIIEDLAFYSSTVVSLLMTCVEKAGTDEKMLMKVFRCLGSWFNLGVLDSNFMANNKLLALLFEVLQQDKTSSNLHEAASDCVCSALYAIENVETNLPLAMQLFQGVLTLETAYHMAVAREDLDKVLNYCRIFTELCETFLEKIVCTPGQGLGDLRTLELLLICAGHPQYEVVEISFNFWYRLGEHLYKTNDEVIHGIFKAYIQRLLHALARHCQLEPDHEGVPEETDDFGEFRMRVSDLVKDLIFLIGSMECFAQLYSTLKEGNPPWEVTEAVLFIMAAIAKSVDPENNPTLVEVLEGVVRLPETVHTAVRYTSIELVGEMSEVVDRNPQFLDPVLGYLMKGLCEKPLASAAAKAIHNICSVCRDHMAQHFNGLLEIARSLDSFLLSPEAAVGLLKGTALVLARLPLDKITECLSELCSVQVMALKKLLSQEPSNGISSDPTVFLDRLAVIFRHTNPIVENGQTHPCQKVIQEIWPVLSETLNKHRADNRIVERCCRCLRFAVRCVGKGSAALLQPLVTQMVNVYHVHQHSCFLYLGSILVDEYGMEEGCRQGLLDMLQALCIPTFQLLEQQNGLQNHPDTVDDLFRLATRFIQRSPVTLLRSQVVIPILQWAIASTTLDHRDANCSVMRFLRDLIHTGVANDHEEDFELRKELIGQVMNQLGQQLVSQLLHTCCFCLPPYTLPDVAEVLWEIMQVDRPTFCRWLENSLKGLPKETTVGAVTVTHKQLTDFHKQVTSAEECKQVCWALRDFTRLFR

[7] = biological target: T3, Transportin 3 (TNPO3), full-length wild …; assay: ITC; phosphorylated, rep2
[8] = biological target: T2, Transportin 3 (TNPO3), full-length wild …; assay: ITC; 100 µM ligand in the syringe injected (28 x 10 µL) into 10 µM TNPO3 (WT or C511A) in the cell; 25 °C; 50 mM Tris-HCl pH 7.5, 150 mM NaCl, 2 mM TCEP, 0.04% NaN3; conditions: both partners purified

B1: CIRBP (157-172) synthetic peptide, wild type (peptide)
peptide: GGSYRDSYDSYATHNE
notes: also called mCIRBP^RSY; source: synthetic peptide (Peptide Specialty Laboratories GmbH)
- Kd [1]: 1.18 µM
- Kd [2]: 6.2 µM and 4.24 µM
- Kd [3]: 6.2 µM
- binding result [4]: binds
- Kd [5]: 5.78 µM

B2: Phosphorylated RSY region of CIRBP (138-172), phosphorylated in vitro by SRPK1 (domain or fragment, human, UniProt Q14011 138-172, looked up)
chain: SRDYYSSR[pS]Q[pS]GGY[pS]DRSSGGSYRDSYDSYATHNE
notes: also called pCIRBP^RSY; phosphorylated CIRBP^RSY; source: E. coli BL21-(DE3) Star, purified; phosphorylated in vitro with recombinant SRPK1 and ATP overnight, isolated by SEC (Superdex 30 Increase); not shown: His6, N-terminal, cleaved; protein A, N-terminal, cleaved
- Kd [6]: 2.54 µM
- Kd [7]: 2.54 µM
- Kd [8]: 5.99 µM

B3: RBM39 (86-101) synthetic peptide (peptide, UniProt Q14498 86-101, looked up)
peptide: SRDRRFRGRYRSPYSG
notes: also called RBM39^RSY (86–101); source: synthetic peptide (Peptide Specialty Laboratories GmbH)
- binding result [4]: binds

B4: RBMX (276-291) synthetic peptide (peptide, UniProt P38159 276-291, looked up)
peptide: PSGGSYRDSYESYGNS
notes: also called RBMX^RSY (276–291); source: synthetic peptide (Peptide Specialty Laboratories GmbH)
- binding result [4]: binds
